{"source": "paper PMC11002309", "tested_on": "PBRM1-BD4 WT", "assay": "EMSA", "settings": "20 uM chosen from titration to approximate EC50; 150 nM DNA, protein 0-50 uM; EMSA: 10.5 mM K3PO4 pH 7 (20 °C), 10 mM KCl, 1% v/v glycerol, 0.2 mM DTT; 1 h on ice; 5% 75:1 native gel in 0.2x TBE, 4 °C", "data": [{"substance": "Widom 601 DNA", "values": [{"measurement": "K half", "value": 20, "unit": "µM"}]}]}
